Consider three molecules from PMC7532178, “Interaction of protocadherin-15 with the scaffold protein whirlin supports its anchoring of hair-bundle lateral links in cochlear hair cells” (Scientific Reports, 2020).

To fix the notation:
T1: whirlin-NTR-PDZ1-Hp1 (aa residues 2-265) (mouse, UniProt Q80VW5-1 2-265)
T1 construct: extra 7 aa at the N-terminus of all recombinant proteins of the study; whirlin (long isoform, L-whirlin), residues 2-265: NTR (with HHD1), PDZ1 and hairpin Hp1; The methods call the 2-265 construct whirlin-NTR-PDZ1; also called NTR-PDZ1-Hp1 whirlin fragment; Nter-PDZ1-Hp1; source: E. coli BL21 (DE3) codonPlus-RIPL, purified (Glutathione Sepharose 4B, GST removed by TEV proteinase, SEC)
T1 sequence: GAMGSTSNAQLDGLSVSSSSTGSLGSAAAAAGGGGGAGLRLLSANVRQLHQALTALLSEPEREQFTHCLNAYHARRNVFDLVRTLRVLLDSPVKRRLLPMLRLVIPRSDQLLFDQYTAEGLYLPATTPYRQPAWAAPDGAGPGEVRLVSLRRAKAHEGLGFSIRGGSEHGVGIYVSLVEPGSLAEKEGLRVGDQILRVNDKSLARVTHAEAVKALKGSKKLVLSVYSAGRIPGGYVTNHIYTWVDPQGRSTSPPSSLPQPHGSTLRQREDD

T2: harmonin-NTD-PDZ1 (aa 1-192) (UniProt Q9ES64 1-192)
T2 construct: extra 7 aa at the N-terminus of all recombinant proteins of the study; harmonin, residues 1-192 (NTD and PDZ1), numbers on GenBank AF228925.1; also called NTD-PDZ1-Hp domain of harmonin; source: E. coli BL21 (DE3) codonPlus-RIPL, purified (Glutathione Sepharose 4B, GST removed by TEV proteinase, SEC)
T2 sequence: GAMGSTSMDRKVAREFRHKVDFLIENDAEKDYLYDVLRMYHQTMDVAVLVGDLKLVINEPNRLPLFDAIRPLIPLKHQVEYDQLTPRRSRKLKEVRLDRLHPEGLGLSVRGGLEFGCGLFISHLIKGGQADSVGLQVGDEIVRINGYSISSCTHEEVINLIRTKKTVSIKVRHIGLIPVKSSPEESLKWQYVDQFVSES

T3: harmonin-PDZ2 (aa residues 197-308) (UniProt Q9ES64 197-308)
T3 construct: extra 7 aa at the N-terminus of all recombinant proteins of the study; harmonin, residues 197-308 (PDZ2), numbers on GenBank AF228925.1; also called PDZ2 domain of harmonin; source: E. coli BL21 (DE3) codonPlus-RIPL, purified (Glutathione Sepharose 4B, GST removed by TEV proteinase, SEC)
T3 sequence: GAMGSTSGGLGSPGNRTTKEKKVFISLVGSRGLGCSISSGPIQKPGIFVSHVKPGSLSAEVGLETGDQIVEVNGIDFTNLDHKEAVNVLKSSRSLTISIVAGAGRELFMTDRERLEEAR

B1: PCDH15-CD1 C-terminal peptide (biotin-TTDS-GIDVQPHSQSTSL) (peptide)
peptide: {Biotin-TTDS}-GIDVQPHSQSTSL
notes: C-terminal 13 aa of protocadherin-15 isoform CD1, including the PBM; source: synthetic peptide (Eurogentec); not shown: biotin, N-terminal, kept
B2: PCDH15-CD3 C-terminal peptide (biotin-TTDS-MGPWNSLHIPMTKL) (peptide)
peptide: {Biotin-TTDS}-MGPWNSLHIPMTKL
notes: C-terminal 14 aa of protocadherin-15 isoform CD3, including the PBM; source: synthetic peptide (Eurogentec); not shown: biotin, N-terminal, kept
B3: PCDH15-CD2 C-terminal peptide (biotin-TTDS-GANSEQYNTAL) (peptide)
peptide: {Biotin-TTDS}-GANSEQYNTAL
notes: C-terminal 11 aa of protocadherin-15 isoform CD2, including the PBM; source: synthetic peptide (Eurogentec); not shown: biotin, N-terminal, kept

No end group written: not given here. *: point of attachment. Biotin = O=C1N[C@H]2[C@H](CS[C@H]2CCCCC(=O)*)N1; TTDS = trioxatridecan-succinamic acid spacer

One experiment addresses T1, whirlin-NTR-PDZ1-Hp1 (aa residues 2-265). Nature of the experiment: SPR; ProteOn XPR 36; N-terminally biotinylated peptides captured on a Neutravidin NLC sensor chip, whirlin fragments flowed as analytes at 20 μL/min for 2 min; 250 mM NaCl, 50 mM Tris pH 7.5, 0.5 mM TCEP; steady-state fit Req = (Rmax*C)/(Kd+C); mean of three experiments; Figure 4B shows the responses at 10 μM. Particulars: both partners purified. A general note: Surface plasmon resonance follows binding to a sensor surface in real time, without labels.
Usually Kd stands for the concentration at which binding is half-saturated. B1: the dissociation constant Kd was found to be 8.8 µM.

Turning to B2, binding was put at a Kd of 4.2 µM.

In turn, B3 yielded a Kd of 8.5 µM.

A further experiment has as its target T2, harmonin-NTD-PDZ1 (aa 1-192). Nature of the experiment: SPR; harmonin fragments or full-length harmonin-a1 with C-terminal peptides; Fig. S10 and data not shown. Particulars: both partners purified.
Turning to B1, the Kd was above 200 µM.

Regarding B2, the dissociation constant Kd is above 200 µM.

The molecule B3 showed a Kd above 200 µM.

In the next experiment the target is T3, harmonin-PDZ2 (aa residues 197-308). The experiment is described as above. Particulars: both partners purified.
For the molecule B1, the Kd was above 200 µM.

In turn, B2 registered a Kd above 200 µM.

In turn, B3 displayed a Kd above 200 µM.
